Source: patent publication US20240075068A1 (GADETA B V, published 2024)
One block for each binder: values may come before it.

Experiments:
[1] = target: Endothelial protein C receptor (EPCR) peptide on (human); test: TEG library γ-random/δ-random, 16 h with Luc-Tom HT-29 (cells that express the antigen), E:T 1:3; CD69/CD107a sort, NGS read ratio; Fig. 9; full-length, on cells; conditions: chains Vgamma:Vdelta
[2] = target: T1, endothelial protein C receptor (EPCR) on HT-29 cells (UniProt Q9UNN8 18-238, limits assumed); test: flow cytometry on HT-29 cells (wild-type, EPCR-enhanced, EPCR KO), streptavidin-A647 detection
T1 construct: whole, on cells; The description says 'preferably human EPCR'; HT-29 is a human cell line; also called recognised target; target antigen
T1 sequence (looked up): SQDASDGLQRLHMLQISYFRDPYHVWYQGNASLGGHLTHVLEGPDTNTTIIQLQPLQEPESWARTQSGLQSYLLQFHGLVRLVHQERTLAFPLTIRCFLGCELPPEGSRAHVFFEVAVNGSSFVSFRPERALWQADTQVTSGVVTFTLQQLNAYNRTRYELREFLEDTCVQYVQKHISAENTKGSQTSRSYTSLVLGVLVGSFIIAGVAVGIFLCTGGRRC
Procedure: Target cells mock treated with PBS served as control binding (FIG. 15A). […] Mock treated and unstained target cells served as controls. Data was analysed with flowjo and shown as histograms.
(§1) Trypsinized HT-29 target cells seeded in 96-well round bottom-plates were incubated for 2 hours at 37° C. to recover cell surface expression molecules. […] Unbound sTCR/TCR-CD3 bispecific engager was washed. Bound sTCR or TCR-CD3 bispecific engager was stained respectively with streptavidin-labelled A647 (BioLegend, CA, USA) or anti-His-APC (BioLegend). Staining was determined with FACS flow cytometry was results were analyzed with Flowjo software.
The soluble γδTCRs were used to assess specific binding to HT-29 cells, HT-29 knocked out (KO) for the expressed target (EPCR) or HT-29 cells with ectopic target expression. Bound soluble γδTCRs were targeted with a secondary streptavidin A647-labelled antibody that could be detected with FACS flow cytometry.

[3] = target: T1, endothelial protein C receptor (EPCR) …; test: flow cytometry on HT-29 cells (wild-type, EPCR ectopic, EPCR KO), anti-His-APC detection
Procedure: PBS-mock treated (secondary only) or unstained target cells served as controls. Data was analysed with flowjo and shown as histograms.
as §1
The γδTCR-CD3 bispecific engagers were used in binding experiments utilizing HT-29 cells, HT-29 with the target antigen (EPCR) knocked out (KO) or with ectopic expression of the target. Bound γδTCR-CD3 bispecific engagers were targeted with an anti-His-APC-labelled secondary antibody that could be detected with FACS flow cytometry.

enrichment of CD69+/CD107a+ over CD69-/CD107a- reads [1]: > 170%
B1: E57 G7/D5 (protein)
chain 1: SSNLEGRTKSVIRQTGSSAEITCDLAEGSTGYIHWYLHQEGKAPQRLLYYDSYTSSVVLESGISPGKYDTYGSTRKNLRMILRNLIENDSGVYYCATWEAFYYKKLFGSGTTLVVT
chain 2: DQQVKQNSPSLSVQEGRISILNCDYTNSMFDYFLWYKKYPAEGPTFLISISSIKDKNEDGRFTVFLNKSAKHLSLHIVPSQPGDSAVYFCAASSPIKGYTGSDKLIFGKGTRVTVEP

binding result [2]: no binding (tested: 10 µg)
B2: sE57 G2/D1 soluble γδTCR (affinity decreased variant, without cysteine) (TCR, V domains shown)
V domain 1: SSNLEGRTKSVIRQTGSSAEITCDLAEGSTGYIHWYLHQEGKAPQRLLYYDSYTSSVVLESGISPGKYDTYGSTRKNLRMILRNLIENDSGVYYCATWDGYKKLFGSGTTLVVTD
V domain 2: DQQVKQNSPSLSVQEGRISILNCDYTNSMFDYFLWYKKYPAEGPTFLISISSIKDKNEDGRFTVFLNKSAKHLSLHIVPSQPGDSAVYFCAASSPIRGYTSGSDKLIFGKGTRVTVEP
modifications: biotinylated via Avi-tag (BirA co-transfection in the presence of biotin)
notes: also called G2/D1 variant

binding result [3]: no binding (tested: 5 µg)
B3: soluble γδTCR-CD3 bispecific engager comprising the G2/D1 variant regions (TCR, V domains shown)
V domain 1: B2 V domain 1
V domain 2: B2 V domain 2
notes: This is a TCR-scFv fusion; also called G2/D1 γδTCR-CD3 bispecific engager; G2D1 γδTCR-CD3 bispecific engager
